Measurements taken from paper PMC12521702 (2025).

Columns and labels:
[1] = target: SARS-CoV-2 prototype (PT) RBD (SARS-CoV-2, UniProt P0DTC2); test: SPR
[2] = target: TNF (human, UniProt P01375); test: SPR
Sequence of TNF (P01375 77-233): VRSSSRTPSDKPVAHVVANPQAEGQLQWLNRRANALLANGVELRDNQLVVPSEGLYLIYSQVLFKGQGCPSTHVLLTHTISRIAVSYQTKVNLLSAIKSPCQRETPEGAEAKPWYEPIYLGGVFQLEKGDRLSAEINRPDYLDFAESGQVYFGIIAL

B1: ACE2 (M)-Fc-TNFR2 (Fc fusion)
chain: QSTIEEQAKFFLDYFNHEAEDLFYQSSLASWNYNTNITEENVQNMNNAGDKWSAFLKEQSTWAQMYPLQEIQNLTVKLQLQALQQNGSSVLSEDKSKRLNTILNTMSTIYSTGKVCNPDNPQECLLLEPGLNEIMANSLDYNERLWAWESWRSEVGKQLRPLYEEYVVLKNEMARANHYEDYGDYWRGDYEVNGVDGYDYSRGQLIEDVEHTFEEIKPLYEHLHAYVRAKLMNAYPSYISPIGCLPAHLLGDMWGQFWTNLYSLTVPFGQKPNIDVTDAMVDQAWDAQRIFKEAEKFFVSVGLPNMTQGFWEYSMLTDPGNVQKAVCHPTAWDLGKGDFRILMCTKVTMDDFLTAHHEMGHIQYDMAYAAQPFLLRNGANEGFHEAVGEIMSLSAATPKHLKSIGLLSPDFQEDNETEINFLLKQALTIVGTLPFTYMLEKWRWMVFKGEIPKDQWMKKWWEMKREIVGVVEPVPHDETYCDPASLFHVSNDYSFIRYYTRTLYQFQFQEALCQAAKHEGPLHKCDISNSTEAGQKLFNMLRLGKSEPWTLALENVVGAKNMNVRPLLNYFEPLFTWLKDQNKNSFVGWSTDWSPYADQSIKVRISLKSALGDKAYEWNDNEMYLFRSSVAYAMRQYFLKVKNQMILFGEEDVRVANLKPRISFNFFVTAPKNVSDIIPRTEVEKAIRMSRSRINDAFRLNDNSLEFLGIQPTLGPPNQPPVSGGGGSGGGGSGGGGSLPAQVAFTPYAPEPGSTCRLREYYDQTAQMCCSKCSPGQHAKVFCTKTSDTVCDSCEDSTYTQLWNWVPECLSCGSRCSSDQVETQACTREQNRICTCRPGWYCALSKQEGCRLCAPLRKCRPGFGVARPGTETSDVVCKPCAPGTFSNTTSSTDICRPHQICNVVAIPGNASMDAVCTSTSPTRSMAPGAVHLPQPVSTRSQHTQPTPEPSTAPSTSFLLPMGPSPPAEGSTGD
Kd [1]: 0.258 nM

B2: ACE2 (M)-Fc (Fc fusion)
chain: QSTIEEQAKFFLDYFNHEAEDLFYQSSLASWNYNTNITEENVQNMNNAGDKWSAFLKEQSTWAQMYPLQEIQNLTVKLQLQALQQNGSSVLSEDKSKRLNTILNTMSTIYSTGKVCNPDNPQECLLLEPGLNEIMANSLDYNERLWAWESWRSEVGKQLRPLYEEYVVLKNEMARANHYEDYGDYWRGDYEVNGVDGYDYSRGQLIEDVEHTFEEIKPLYEHLHAYVRAKLMNAYPSYISPIGCLPAHLLGDMWGQFWTNLYSLTVPFGQKPNIDVTDAMVDQAWDAQRIFKEAEKFFVSVGLPNMTQGFWEYSMLTDPGNVQKAVCHPTAWDLGKGDFRILMCTKVTMDDFLTAHHEMGHIQYDMAYAAQPFLLRNGANEGFHEAVGEIMSLSAATPKHLKSIGLLSPDFQEDNETEINFLLKQALTIVGTLPFTYMLEKWRWMVFKGEIPKDQWMKKWWEMKREIVGVVEPVPHDETYCDPASLFHVSNDYSFIRYYTRTLYQFQFQEALCQAAKHEGPLHKCDISNSTEAGQKLFNMLRLGKSEPWTLALENVVGAKNMNVRPLLNYFEPLFTWLKDQNKNSFVGWSTDWSPYADQSIKVRISLKSALGDKAYEWNDNEMYLFRSSVAYAMRQYFLKVKNQMILFGEEDVRVANLKPRISFNFFVTAPKNVSDIIPRTEVEKAIRMSRSRINDAFRLNDNSLEFLGIQPTLGPPNQPPVS
Kd [1]: 0.274 nM

B3: TNFR2-Fc (Fc fusion)
chain: LPAQVAFTPYAPEPGSTCRLREYYDQTAQMCCSKCSPGQHAKVFCTKTSDTVCDSCEDSTYTQLWNWVPECLSCGSRCSSDQVETQACTREQNRICTCRPGWYCALSKQEGCRLCAPLRKCRPGFGVARPGTETSDVVCKPCAPGTFSNTTSSTDICRPHQICNVVAIPGNASMDAVCTSTSPTRSMAPGAVHLPQPVSTRSQHTQPTPEPSTAPSTSFLLPMGPSPPAEGSTGDFALPVGLIVGVTALGLLIIGVVNCVIMTQVKKKPLCLQREAKVPHLPADKARGTQGPEQQHLLITAPSSSSSSLESSASALDRRAPTRNQPQAPGVEASGAGEARASTGSSDSSPGGHGTQVNVTCIVNVCSSSDHSSQCSSQASSTMGDTDSSPSESPKDEQVPFSKEECAFRSQLETPETLLGSTEEKPLPLGVPDAGMKPS
Kd [2]: 0.0418 nM
